The text below walks through data of patent publication US20100160220A1.

In experiment [1] the target is PTH1R tagged with HA (human) (UniProt Q03431). Nature of the experiment: PTH ligand incubated with transfected cells for 15 seconds, plasma membrane isolated, bound ligand by Western blot. (In general: In western blotting, separated proteins are transferred to a membrane and probed.)
A further experiment addresses PTH1R-YFP2 (UniProt Q03431). Put plainly: YFP protein-fragment complementation assay with PTH1R-YFP2 in living cells.

Sequence of PTH1R-YFP2 (Q03431 27-593): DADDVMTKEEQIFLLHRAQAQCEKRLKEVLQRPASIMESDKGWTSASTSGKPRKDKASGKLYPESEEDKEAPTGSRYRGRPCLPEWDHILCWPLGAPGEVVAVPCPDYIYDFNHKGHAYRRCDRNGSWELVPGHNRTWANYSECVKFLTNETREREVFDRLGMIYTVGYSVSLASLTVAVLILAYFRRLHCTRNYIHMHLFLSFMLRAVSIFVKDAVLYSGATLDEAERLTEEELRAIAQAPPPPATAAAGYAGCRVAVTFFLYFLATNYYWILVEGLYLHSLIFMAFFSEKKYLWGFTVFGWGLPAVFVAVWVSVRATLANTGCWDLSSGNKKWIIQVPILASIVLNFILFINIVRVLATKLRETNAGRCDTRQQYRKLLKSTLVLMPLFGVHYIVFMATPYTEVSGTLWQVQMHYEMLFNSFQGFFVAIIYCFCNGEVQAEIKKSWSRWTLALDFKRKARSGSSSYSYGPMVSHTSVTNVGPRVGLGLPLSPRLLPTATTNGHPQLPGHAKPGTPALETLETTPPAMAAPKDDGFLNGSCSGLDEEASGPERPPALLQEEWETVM
Sequence of PTH1R tagged with HA (human) (Q03431 27-593): as above

“PTH ligand (form not stated, Example 12) (from UniProt P01270 32-65)” came in with a reduction of binding of PTH ligands versus vector control (cells overexpressing WT TβRII) in experiment [1] of 50%.

In the case of “kinase dead TβRII (K277A)-YFP1 (from UniProt P37173 23-567) (receptor)”, the YFP fluorescence intensity relative to WT TβRII (fold of WT TβRII-YFP1) in the experiment with PTH1R-YFP2 worked out at 0.167.
